Laboratory results published in paper PMC12013497.

Biological target: wild-type Bacteroides fragilis glutamate decarboxylase (BfGADWT) (Bacteroides fragilis)
Experiment: SEC

stoichiometry N: 6
Substance: wild-type Bacteroides fragilis glutamate decarboxylase (BfGADWT) (enzyme)
